In doi:10.1101/2024.07.08.602551, “An avidity-driven mechanism of extracellular BMP regulation by Twisted gastrulation” (bioRxiv, 2024):
Where a chain is given by its changes, count along the chain named. Numbers in names are those of the source.

T1: human ΔN-Chordin (human, UniProt Q9H2X0 127-955)
T1 construct: Chordin, human, truncated form missing the N-terminal vWC1 domain but retaining the C-terminal vWC2-4 domains; source: purified, recombinantly expressed; prepared as described previously (Troilo et al., 2014)
T1 sequence (looked up): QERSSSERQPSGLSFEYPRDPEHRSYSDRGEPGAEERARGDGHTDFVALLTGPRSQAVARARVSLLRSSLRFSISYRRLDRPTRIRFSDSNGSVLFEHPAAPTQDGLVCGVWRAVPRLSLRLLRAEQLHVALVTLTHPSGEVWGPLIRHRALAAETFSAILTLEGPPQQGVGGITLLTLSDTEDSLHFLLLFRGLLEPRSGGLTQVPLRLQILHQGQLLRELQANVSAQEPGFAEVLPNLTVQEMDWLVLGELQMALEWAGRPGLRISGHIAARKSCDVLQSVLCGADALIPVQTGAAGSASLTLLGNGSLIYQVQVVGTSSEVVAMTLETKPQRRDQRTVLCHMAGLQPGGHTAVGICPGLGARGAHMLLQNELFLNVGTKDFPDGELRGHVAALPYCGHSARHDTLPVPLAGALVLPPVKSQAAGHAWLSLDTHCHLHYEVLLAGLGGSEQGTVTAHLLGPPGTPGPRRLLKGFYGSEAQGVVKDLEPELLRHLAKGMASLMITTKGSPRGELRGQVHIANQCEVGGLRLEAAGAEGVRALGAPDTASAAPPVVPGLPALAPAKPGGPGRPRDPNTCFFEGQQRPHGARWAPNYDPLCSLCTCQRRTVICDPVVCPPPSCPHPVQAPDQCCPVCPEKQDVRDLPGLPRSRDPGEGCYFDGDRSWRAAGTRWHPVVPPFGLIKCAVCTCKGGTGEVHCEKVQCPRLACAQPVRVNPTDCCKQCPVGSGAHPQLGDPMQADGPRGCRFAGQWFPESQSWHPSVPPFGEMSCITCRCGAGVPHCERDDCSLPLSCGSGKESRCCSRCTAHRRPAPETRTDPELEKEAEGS

B1: human Twisted gastrulation (residues Cys26-Phe223) (natural protein, UniProt Q9GZX9 26-223, looked up)
chain: CNKALCASDVSKCLIQELCQCRPGEGNCSCCKECMLCLGALWDECCDCVGMCNPRNYSDTPPTSKSTVEELHEPIPSLFRALTEGDTQLNWNIVSFPVAEELSHHENLVSFLETVNQPHHQNVSVPSNNVHAPYSSDKEHMCTVVYFDDCMSIHQCKISCESMGASKYRWFHNACCECIGPECIDYGSKTVKCMNCMF
notes: Cloned in the vector pHLsec (Addgene_99845) between AgeI and KpnI; secreted; also called Tsg; human Tsg; source: Expi293-F cells, transfected, purified from conditioned media (Strep-Tactin XT, SEC)
B2: human Twisted gastrulation Leu107Ala (natural protein, UniProt Q9GZX9 26-223, looked up)
chain: B1 chain with L82A
notes: Twisted gastrulation (Tsg), human, residues Cys26-Phe223, with the point mutation L107A; Point mutant of m1 made by PCR and In-Fusion cloning; also called Tsg^L107A; source: Expi293-F cells, transfected, purified from conditioned media (Strep-Tactin XT, SEC)

Target: T1, human ΔN-Chordin
Experiment: SPR; Biacore T200; wildtype or mutant Tsg immobilised on CM5 by amine coupling (350 RU); analyte (ΔN-Chordin or CHRDL2) in a two-fold series, 30 μl/min, 200 s, 300 s dissociation; 20 mM HEPES, 150 mM NaCl, 0.05% Tween20, pH 7.4, 25°C; Langmuir 1:1 fit; triplicate
Details: both partners purified

Binder	Kd
B1	14 nM
B2	60 nM
